Laboratory results as given in patent US20230183713A1, “SITE-SPECIFIC RECOMBINASES FOR EFFICIENT AND SPECIFIC GENOME EDITING” (TECHNISCHE UNIVERSITÄt DRESDEN, published 2023).
Changes are numbered by the printed parent chain. Names and notes keep the numbering of the source.

Assays:
[1] = biological target: T1, Cre recombinase monomer with K201I mutation
T1 chain: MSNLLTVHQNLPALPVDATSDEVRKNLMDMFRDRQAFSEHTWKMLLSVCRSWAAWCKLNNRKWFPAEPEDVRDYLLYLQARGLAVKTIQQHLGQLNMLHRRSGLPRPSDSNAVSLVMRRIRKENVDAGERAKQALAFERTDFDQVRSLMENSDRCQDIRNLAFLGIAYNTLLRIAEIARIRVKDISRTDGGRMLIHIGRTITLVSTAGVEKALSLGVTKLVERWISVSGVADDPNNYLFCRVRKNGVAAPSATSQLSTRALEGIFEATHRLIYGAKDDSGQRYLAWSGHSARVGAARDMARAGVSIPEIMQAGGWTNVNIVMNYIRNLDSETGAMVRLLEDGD

[2] = biological target: T2, Cre recombinase monomer with K201R mutation
T2 chain: T1 chain with I201R

[3] = biological target: T3, Cre recombinase monomer with Q311R mutation
T3 chain: T1 chain with I201K, Q311R

[4] = biological target: T4, Cre recombinase monomer with W315R mutation
T4 chain: T1 chain with I201K, W315R

[5] = biological target: T5, Cre recombinase monomer with W315T mutation
T5 chain: T1 chain with I201K, W315T

[6] = biological target: T6, Cre recombinase monomer with Y324C mutation
T6 chain: T1 chain with I201K, Y324C

[7] = biological target: T7, Cre recombinase monomer with Y324F mutation
T7 chain: T1 chain with I201K, Y324F

[8] = biological target: T8, Cre recombinase monomer with K201N mutation
T8 chain: T1 chain with I201N

[9] = biological target: T9, Cre recombinase monomer with W315N mutation
T9 chain: T1 chain with I201K, W315N

[10] = biological target: T10, Cre recombinase monomer with R292G mutation
T10 chain: T1 chain with I201K, R292G

[11] = biological target: T11, Cre recombinase monomer with W315I mutation
T11 chain: T1 chain with I201K, W315I

[12] = biological target: T12, Vika recombinase monomer with Q330R mutation
T12 chain: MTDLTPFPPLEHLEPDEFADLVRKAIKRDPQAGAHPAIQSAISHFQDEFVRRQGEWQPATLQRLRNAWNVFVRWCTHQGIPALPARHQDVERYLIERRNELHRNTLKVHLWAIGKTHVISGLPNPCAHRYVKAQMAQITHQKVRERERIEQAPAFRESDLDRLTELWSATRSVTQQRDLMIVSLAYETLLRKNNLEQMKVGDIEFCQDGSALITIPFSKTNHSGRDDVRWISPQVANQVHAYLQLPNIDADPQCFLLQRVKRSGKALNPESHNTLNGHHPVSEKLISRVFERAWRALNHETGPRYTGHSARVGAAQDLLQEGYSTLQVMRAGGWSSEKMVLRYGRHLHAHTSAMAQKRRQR

B1: Cre recombinase monomer with K201F mutation (protein)
chain: T1 chain with I201F
[1]
  Median dimer activity (recombination on loxP): 72%
[2]
  Median dimer activity (recombination on loxP): 59%
[3]
  Median dimer activity (recombination on loxP): 94%
[4]
  Median dimer activity (recombination on loxP): 29%
[5]
  Median dimer activity (recombination on loxP): 41%
[6]
  Median dimer activity (recombination on loxP): 98%
[7]
  Median dimer activity (recombination on loxP): 54%

B2: Cre recombinase monomer with E129R mutation (protein)
chain: T1 chain with E129R, I201K
[8]
  Median dimer activity (recombination on loxP): 35%
[2]
  Median dimer activity (recombination on loxP): 26%
[3]
  Median dimer activity (recombination on loxP): 93%
[9]
  Median dimer activity (recombination on loxP): 30%

B3: Cre recombinase monomer with K201Q mutation (protein)
chain: T1 chain with I201Q
[3]
  Median dimer activity (recombination on loxP): 94%
[10]
  Median dimer activity (recombination on loxP): 58%
[11]
  Median dimer activity (recombination on loxP): 30%

B4: Cre double mutant CreK201R+Q311R (both mutations in the same monomer) (protein)
chain: T1 chain with I201R, Q311R
other
  recombination on loxP excision substrate in E. coli: showed no observable recombination of the loxP target sequence

B5: Vika recombinase monomer with K219R mutation (protein)
chain: T12 chain with K219R, R330Q
[12]
  recombination on vox excision substrate in E. coli: A similar activity profile (although with some loss of activity) was seen when Vika^K219R and Vika^Q330R were co-expressed on the vox target sequence
